From the supplement of paper PMC9170038

System: K4 kissing-loop RNA reporter
Experiment: apparent KD of K4 kissing-loop reporter; higher = weaker reporter binding
Settings: Eterna round: R107
Procedure: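 RNA-MaP round R107: designed RNA switches with theophylline, tryptophan, arginine or FMN aptamers are transcribed on-chip within common flanks. They are titrated with a labelled K4 kissing-loop RNA reporter in RNA-MaP buffer (100 mM Tris pH 7.5, 80 mM KCl, 4 mM MgCl2), without ligand or with the indicated ligand. Median apparent KD per design.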

[1] = input ligand: theophylline 20 uM
[2] = input ligand: tryptophan 2.4 mM
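Also: bound reporter read as fluorescence of individual clusters on recovered sequencing chips by microscopy, with normalized cluster intensities fitted with a binding model.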

Row | Sequence | apparent KD of K4 kissing-loop reporter (input ligand: FMN 200 uM) [nM] | apparent KD of K4 kissing-loop reporter (input ligand: arginine 13.2 mM) [nM] | apparent KD of K4 kissing-loop reporter (input ligand: none) [nM] | apparent KD of K4 kissing-loop reporter [1] [nM] | apparent KD of K4 kissing-loop reporter [2] [nM]
1 | AAAAUAAACCAGUGAUGUUGGUGUGUAGAUACCAGCGACGAAAGUCGCCCUUGGCAGCUGUGGACGUACAAAAUAAGUACGUCCU [MatMod 23 - Jieux - Same State - Theophylline A] | 315 | 310 | 350 | 325 | 280
2 | GUAGAUAGGCAACAUCCCUAGUCUACAGACUAGGAUAUCAGGAAACUGAGAAGGAGUCUCCUUGCAGUGAUGUUGCAAGAAUAAU [[F]''-[K]'-[F]'-[F1]-[F2]-[K1]-[K2]_Design5] | 185 | 181 | 200 | 83.6 | 161
3 | AAAUAACAGGCAGGAUAUGCUUAGUAAUAAGGCCAUAUAUACGUAUAGAGUGAUGUUUUGUACAAAGCAGAAGGGCUAAAUCCAU [FMN B Excl V1] | 154 | 151 | 160 | 105 | 167
4 | CCUAUCUCAUACGAUACCAGUCAAUGAAAUUUUAUCAAUGCCAUCACCGAGUGAUGUUCGGACCCUUGGCAGCGUAUGGGAUAGG [Ex Theophylline B K4 3] | 249 | 195 | 237 | 329 | 223
5 | GGAGGCCAGGCCUGCGAAGUGAUGUUUUGACGAGGACCGGUACGGCCGCCACUCGAAUGUUCUAUCAUCGUACGAACUUCUGCGU [theeternabot_exclusion_KL_Trp_A_26] | 593 | 415 | 496 | 527 | 394
6 | GGAUAGGAUAGAGGAUAUGGUUUAUGCAAGAAUAACUUAUCGUGUAAAUCCAUAGGGAGUGAUGUUCCAGAAGGCUGUCCUAUCG [MatMod 12 - Jieux - Exclusion - FMN B] | 335 | 201 | 239 | 246 | 173
7 | UUUAUUAAGACGGCCGCCACUGAAUUAGAGUGAUGUUCUAUAAUUUCUAAAUUAAAUUUAUUCAACAGGACCGGGUCAAUUAUUA [JR_SSTryptoB_Sub011] | 384 | 364 | 382 | 392 | 314
8 | GGACGACAGGCGGCCGCCACUCACAGCAGCCAGCGAGUGAUGUUCGUAGCGGAGUGAUGUUCCGAGAGGACCGGGUCUGCAGUCC [Same State Tryptophan B GF 17] | 246 | 178 | 224 | 168 | 223
9 | CAUACGAAGCAGUGAUGUUGCUUAUGAGAAGGAGCGCACGAAAGUGCAGGUAGGUCGCUCAGCCAUGUGGACGAAAACGUCCACA [whbob_SS_Arginine_A_sa112] | 266 | 273 | 276 | 265 | 269
10 | AUACGUUUAAGUGAUACCAGACAUGUGAGUGAUGUUUACAUAUAUAUUUAAUAUUUAGCUGUCCCUUGGCAGCACAGUUUAUUUA [JR_ExcTheophyB_Sub001] | 350 | 374 | 441 | 399 | 308
11 | AAAAUAAAUAGCAGUCACGGAGUGAUGUUCCGAGGACCGGUACGGCCGCCACUCGACCAGACAAAGUCUGGAUGGCGAGACUGCA [#SwitchBubble 19 #K4Early] | 200 | 290 | 342 | 392 | 340
12 | AAAGACUGACUGCAAUUAGCAGUCAGUCAACGAGGACCGGUACGGCCGCCACUCGGGUCCUAGAGUGAUGUUCUAAUAAUAUAAU [Default title] | 279 | 367 | 432 | 466 | 167
13 | CCAUCGCUAUUCGAUACCAGUCAAGAGGUCUUUGGCCUCUUAAUGGAGUGAUGUUCCUUAGACCCUUGGCAGCGAAUAGUGAUGG [Theophylline B K4 13] | 266 | 127 | 237 | 340 | 124
14 | UGGCAAGUGAUGUUUGCGUUUCCGCAGGAUACCAGUCUGUCUUGAGACCCUUGGCAGCCUGGGUACAGUCCAAGCGGUCACACGA [theeternabot_exclusion_KL_Theo_A_38] | 371 | 297 | 405 | 375 | 285
15 | CCUUUCAGUUACGAUACCAGUCUAAUAUAUUUGAUCAAUACCCUCGCCGAGUGAUGUUCGGACCCUUGGCAGCGUCUGGGACAGG [gbbymullin] | 526 | 428 | 525 | 418 | 337
16 | GACAUCUAUCGCCGAUAGUGUUUAUCUUGGGAGGAUAUGUCAGCGGACAGAAGGCCCAGUGAUGUUGGGUAGAUGACCGUUGCCU [Orerditi] | 337 | 123 | 131 | 131 | 128
17 | UGACUACAAAAGGAAUAAUCCUAGUGAUGUUAGGAUAUGCUGAUAAGCAGAAGGAACGGAGAUCGAAAGAUCUCAUAUGUAGUCU [whbob_Ex_FMNA__2th192] | 141 | 87.4 | 82.8 | 98.5 | 87.4
18 | GUAGACGUACCUUCAGUGAUGUUGAAGGAUACCAGAUGUUAUCACAUCCCUUGGCAGCCUUGGGAUAACAGUGAGUCGGAAUAUG [Essoaran] | 170 | 142 | 184 | 159 | 168
19 | AAGGUCACUGCUACAGUGAUGUUGUGGGAGCAGGAUAUGCUGAAAAGCAGAAGGGCUCGCUCCAGGUGACCGAAUGAAACAUUCA [whbob_SS_FMNA__2th176] | 1140 | 718 | 1290 | 792 | 1110
20 | CCAUCGCUAUUCGAUACCAGUCAUUUUUUAUUUUUUUUUUUUUUUGGAGUGAUGUUCCAAGACCCUUGGCAGCGAAUAGUGAUGG [whbob_SS_Theo_B_th77] | 91.3 | 109 | 76.3 | 114 | 68.1
21 | AUUAAUUUCAGAGGAUAUGCUUUAUUAUUAUUUUUAAAUAAUAAAUGCAGUGAUGUUGCUUAUUAUGCAGAAGGCUGAUUUAUAA [JR_SSFMNB_Sub014] | 119 | 625 | 603 | 586 | 545
22 | AGAUUCGACACGGCCGCCACUUCCGGUGGCUGGUGUCAUGGUGCGCGUGAGUGAUGUUUAUGUGGAAGGACCGGGUGUUGAGUCU [whbob_Ex_Tryp_B_w41] | 597 | 525 | 730 | 751 | 872

Row | Sequence | apparent KD of K4 kissing-loop reporter (input ligand: FMN 200 uM) [nM] | apparent KD of K4 kissing-loop reporter (input ligand: arginine 13.2 mM) [nM] | apparent KD of K4 kissing-loop reporter (input ligand: none) [nM] | apparent KD of K4 kissing-loop reporter [1] [nM] | apparent KD of K4 kissing-loop reporter [2] [nM]
23 | GGUAGCAUGGCGGCCGCCACUGGAGAGUGAUGUUCUCCACUAGGUUACAACGCCGGACAGUCCACCAGGACCGGGCCAUGCUACC | 140 | 106 | 131 | 129 | 436
24 | GCGUGCCAUGCAGGAUAUAGUUGUUCGAGUGAUGUUCGAGCCUUGCUAAGUUCGGAGCAUCAGCUUCUAGAAGGGCAUGGCACGC | 156 | 205 | 618 | 241 | 347
25 | UUAGGAGUGGAAGGAUAUCCUGGUGUGGGUGAUGUUAGUGAUGUUGGAGGUGCAGUGAUGUUGCGCGGAGAAGGUCCGGUGUUGA [BDazzled - #5 - Exc. FMN B] | 280 | 299 | 372 | 435 | 263
26 | AACACUCUGGGAGUGAUGUUCUCAAAUAACCGAGGACCGGUACGGCCGCCACUCGGAAAAGAGUGAGUCCUACGAAAAGUAGGAC [Omei inspired 3] | 225 | 258 | 235 | 264 | 152
27 | CCGAAGAACCAGUGAUGUUGGUUGACUAGACAGGAUAUGAGCAACAUCAGAAGGGUCUGGCUUCGGGAGUGGGUCACGCUGACCU [Iserreanor] | 271 | 282 | 426 | 912 | 808
28 | GGGAGUAGUGCGGCCGCCACUGAGAAAGAAGAAGAAUAUAGUGAUGUUAUAUAGGAAAGGAAGAACAGGACCGGGCAUUAGAGGG [SSTRyptB.C] | 163 | 171 | 147 | 243 | 131
29 | UCCUGCAAUCUGCCACGAAAGUGGAUUGAUACCAGAGUCGAAAGACUCCCUUGGCAGCGAGUGAUGUUCGUUGCAGGUAAAUAAA [MatMod 7 - Jieux - Exclusion - Theophylline A] | 181 | 178 | 175 | 170 | 149
30 | CCUAUCUCAUACGAUACCAGUCAAAAUAUAAUUAACCAGUGAUGUUGGAUUUACCAAGGAGACCCUUGGCAGCGUAUGGGAUAGG [Ex Theophylline B K4 18] | 387 | 412 | 410 | 517 | 540
31 | UGGAUGUAGUGAUGUUAUAUAGAGAGUGAUACCAGUUUAGAGAAGAACCCUUGGCAGCAUAGAAGAGUAUCAUUGGAGAAGAAUG [ExTheophyl.Ar] | 308 | 347 | 320 | 334 | 244
32 | UUAUACUCAUGUAAAGAACUAGUAACCGAAGGAGCGACAUAAAAGUCAGGUAGGUCGCGGAUUUCUCAGUGAUGUUGAGAGCAUU [JR_SSArginiA_Sub012] | 109 | 192 | 121 | 185 | 93.9
33 | UUUAUUAAGACGGCCGCCACUGAUUCAUAGUGAUGUUAUGAUAUAAUUUUAGUGAUAUGCAUUAGCAGGACCGGGUCAAUUAUUA [JR_ExcTryptoB_Sub017] | 158 | 146 | 166 | 142 | 173
34 | UGAUACCAGACUGAUACCAGCAAGUGAUGUUUGUUGAUCUAUGCAGUCAAAGACUGCUCUUGCCCUUGGCAGCAGUCUGGUAUCU [TheoBX 28 #SwitchBubble #StaticStem] | 762 | 640 | 1040 | 409 | 777
35 | GGAGUUACCUGGGAUACCAGCCGGAGGCCCAGAGCUCGGAGUGAUGUUCUGGGAUGUUUCGGCCCUUGGCAGCUCUGGGUCUCCC [#2 Exclusion - Theophylline B Attempt #6 (HarryS)] | 1520 | 512 | 535 | 505 | 521
36 | CCGCUGUACUGCAAUAAGUGAUGUUUAUUGCAGGAUAUCUGGAAACAGAGAAGGGCAUGUACUCGACUUAGCCACUACAGCGGUU | 144 | 57.3 | 61.1 | 56.9 | 65.2
37 | CCAUUCUUUUACGAUACCAGUUUAAUAUAUUUAAUCAAAACCCUCGCCGAGUGAUGUUCGGACCCUUGGCAGCGUUUGCGAGAGG [bjnbstkmullin] | 455 | 291 | 582 | 533 | 397
38 | GUAGGAUGAGGAGGAGGAUGAAUUACUGAAGGAGCGCAGAGAAAUGCAGGUAGGUCGCGGUAAAGAAGUAUAGUGAUGUUAUAUC [#09 K4 Arginine A Same State] | 775 | 308 | 657 | 526 | 598
39 | ACCUAGUAGACAGGAUAUCACCAUGACAGUGAUGUUGUCAUGCUCGAUUUGAGGAAACUCAGAUCGUGAGAAGGGUCUAACGACU [FMN B SS t7] | 136 | 149 | 170 | 146 | 158
40 | AGUACAGACACGGCCGCCACUCAGAAGAAGAUAGUAGUGAUGUUACUGAUGAUGAGAAUAAUAAAGAGGACCGGGUGUUGUGCAA [#09 K4 Tryptophan B Same State] | 107 | 100 | 125 | 113 | 71.5
41 | GAGCCAACCGUCGAUACCAGCCGCACGUCAUUCACUCAAUGCUGAGGAGCCAGUGAUGUUGGCCCUUGGCAGCGAAGCAACGAUC [theeternabot_exclusion_KL_Theo_B_43] | 97.5 | 91.8 | 93.5 | 93.5 | 93.2
42 | AGUGUUAGGUUAGAUACCAGCCGUUCGUGAAUAGUCUUCGAACCGCCAGUGAUGUUGGCAGGCCCUUGGCAGCUAACAGAACAGA [Lagelare] | 212 | 199 | 198 | 159 | 208
43 | GCUAUGGUAGGAAGGAGCGCUACUUUGUUUUUACGAGUGAUGUUCGGUAGCAGAGUGUUAAAGCAGGUAGGUCGCCUACUAUAGC [Arginine B K4 19] | 225 | 244 | 244 | 307 | 280
